Measurements reported in the nanobody polyreactivity screen of Harvey et al. (2022).

Assay: yeast display, Sf9 membrane polyspecificity reagent, FACS + sequencing; frameworks hold sequencing errors
Method in brief: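 After 36–48 hours of galactose induction, yeast (Saccharomyces cerevisiae BJ5465) displaying a synthetic nanobody library were stained at 4 °C for 1 hour with 10% biotinylated, detergent-solubilized Sf9 membrane reagent. Streptavidin microbeads enriched the stained cells before FACS sorting into low and high (top ~1%) gates on anti-HA and streptavidin fluorescence. Each clone's polyreactivity label reflects its gate of origin.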

Sequence | polyreactivity (PSR sort gate)
QVQLVESGGGLVQAGGSLRLSCAASGSIFWYNTMGWYRPAPGKERELVAAISKSGTSTYYADSVKGRFTISRDNAKNTVYLQMNSLKPEDTAVYYCAAALPGYGDYYYWGQGTQVTVSS | high polyreactivity
QVQLVESRGGLVQAGVSLRLSCSASGSIFPYYAMGWYRQAPGKEREFVASISSVTSTYADSVKGRFTISRDNAKNTVYFQMYILIPEDTAVYYFAADRAYSWYSVSRNNYWGPGTQVTVSS | low polyreactivity
QVQLVESGGGLVQAGGSLRLSCAASGRIFGRYAMGRYRQAPGKERELVAAISSTVGSTYYADSVKGRFTISRDNAKNTVDLQMNSLKPEDTAVYYCATVWYGSYYWATEYWGQGTQVTVSS | high polyreactivity
QVQLVESGGGLVQAGGSLRLICAASGRIFGANAMGWYIQAPGKERELVAAISRTGGSKYYADSVKGRFTISRDNAKNTVYLQMNSLKPEDTAVYYCNAVYRYAHPMEYWGQGTQVTVSS | high polyreactivity
QVQLVESGGGLVQAGGSLRLSCAASGRTFNGYALGGYRQAPGKERELVAAICSSGGSTYYADSVKGRFTISRDNAKNTVYLQMNSLKPEDTAVYYCAARRANGFNYWGQGTQVTVSS | high polyreactivity
QVQLVESGGGLVQAGGSLRLSCAASGFTFRYYAMGWYRQAPGKERELVAAISSGGNTRYADSVKGRFTISRDNAKNTVYLQMNSLKPEDTAVYYCARRPGAWKYVYTGDYWGQGTQVTVSS | high polyreactivity
QVQLVESGGGLVQAGGSLRLSCAASGRTLSVYAMGWYRQAPGKERELVAAITIRGGRTYYADSVKGRFTISRDNAKNTVYLQMNSLKPEDTAVYYCAAPPYVKMDYWGQGTQVTVSS | high polyreactivity
QVQLVESGGGLVQAGGSLRLSCAASGSIFRFYVMGWYRQAPGKEREMVAAISIGGSTNYADSVKGRFTISLDNAKNTVFLQMNSLKPEDTAVYYCAADYWYGAGMPHGTEFDYWGQGTQVTVSS | low polyreactivity
QVQLVESGGGLVQAGGSLRLSCAASGFTFTSYVMGWYRQAPGKEREFVAAITRSAGGTYYADSVKGRFTISRDNAQNTFYLQINSLKPEDTAVYYCAAEYYVPGGGAYRGDYWGQGTQVTGSS | high polyreactivity
QVQLVESGGGLVQAGGSLRLSCAASGSTFSAYTMGWDRQAPGKERELVAAIRFDGGRTYYADSVKGRFTISRDNAKNTVYLQMNSLKPEDTAVYYCPAWQSYSYDYWGQGTQLTVSS | high polyreactivity
QVQLVESGGGLVQAGVSLRLSCAASGNIFGVYTMGWYRQAPGQEREFVAAISDGGSTYYADSVKGRFTISRDNAKNTVYLQMIRLKPEDTAVYYCAALIYGPDRVVDEFVYWGQGTQVTVSS | low polyreactivity
QVQLVESVGGLVQAGGSLRLSCAASGSTFGYYTMGSYRQAPGKEKELVAAITWSGGSTYYADSVKGRITISRDNAKYTVYLQINSLKPEDTAVYYCADDDYWTPFGYLGQGTQVTVSS | low polyreactivity
QVQLVESGGGLVQAGGSLRLRCAASGSTYTVYAMGWYRQAPRKDRELVAAIRDGSSTNYADSVKGRFTISRDNAKNTVYLQRNSLKPEDTAVYYCNAPYPPTGYGDDDYWGQGTQVTVSA | low polyreactivity
QVQLVESGGGLVQAGGSLRLSCAASGRILWYNAMGWYRQAPGKERELVAAINRGGSTNYADSVKGRFRISRDNAKNTVYLQMNSLKPEDTAVYYCAAVHYRWWYRSAYDYWGQGTQVTVSS | low polyreactivity
QVQLVESGGGLVQAGGSLRLSCAASGSRNAMGWYRQEPGKERQFVAAITWNGGSTYYADSVKGRFTITRDNAKNTVYLQMNSLKPEDTAVYYCAADVVFPFSVGYDYWGQGTQVTVSS | low polyreactivity
QVQLVESGGGLVQAGGSLRLSCAASGFIFTKYTMGWYRQAPGKERELVAAITGRGTSTYADSVKGRFTISRDNAKNTVYLQMNSLKPEDTAVYYCAAVGWFADFLFSDINGYYWGQGTQVTVSS | low polyreactivity
QVQLVESGGGLVQAGGSRRLSCAASGRTLGHNAMGWYRQAPGKERELVAAITSRGGTTYADSVKGRFTISRDNAKNTVYLQMNSLTPEDTAVYYCAARGYAYSRYYFWGQGTQVTVSS | high polyreactivity
QVQLVESGGGLLQAGGSLRLSCAASGRIFYYYAMGWYRQAPGKEREFVARNRSSGGSTYADSVKGRFTISRDNAKNTVYLQMNSLKPEDTAVYYCARDGYTAVEYDYWGQGTQVTVSS | low polyreactivity
QVQLVESGGGLVQAGGSLRLSCAASGRTFQRYALGWYRQAPGKERELVAAITSRGGSTYYADSVKGRFTISRDNAKNTDYLQMNSLIPEETAVYYCSARSRRTHSEPQSEMDYWGQGTQVTVSS | high polyreactivity
QVQLVESGGGLVQAGGSLRLSCAASGSILVRYAMGWYRQAPGKERELVAAITYSGGSTYYADSVKGRFTISRDNAKNTVYLQMNSLKPEDTAVYYCAADVWWSYYRYDYWGQGTQVTVSS | low polyreactivity
QVQLVESGGGLVQAGGTLRLSCDASGFIFPGYAKGWSRNATGKQREFVAAISRSGGSTYYADSVKGRFTISRDNAKNTVYLQMNSLKPEDTAVYYCATRARGYTGYDYWGQGTQVTVSS | high polyreactivity
QVQLVESGGGLVQAGGSLRLSCAASGSTFYYNSMGWYRQAHGKERQLVAAISKSSTRTYYADSVKGRFTISRDNAQNTVYLQMNSLKPEDTAVYYCAARQWRRSRFDYWGQGTQVNVSS | high polyreactivity

Sequence | polyreactivity (PSR sort gate)
QVQLVESGGGLVHAGGSLRLSCAASGSIFGDYAMGWYRQAPGKERELVAAITRRGSTYYADSVKGRFTISRDNAKNTVYLQMNSLIPEDTAVFYCAKDVYPGRAGRPGIPYPYDYWGQGTQVTVSS | low polyreactivity
KVQLVESGSGFVQAGGSLGLSCAASGSIFRGYAMGWYRQAPGKERELVAAISWSGGTTYYADSVKGRLTISRDNEKNTFYLQMNSLKPEDTAVYYCAADTTVTITSKYNYWVQGTQVTVSS | low polyreactivity
QLQLVESGGVLVQAGASLRLSCAATVSTFIYYAMGWYRQAPGKEREVVAAISKRGGNTYYADSVKGRFTISRDNAKNTVYLQMNSLKPEDTAVYYCAARVYGTSRRYYSWGQGTQVTVSS | high polyreactivity
QVQLVESGGGLVQAGGSLRLSCAASVFTFSPNAMGWYRQAPGKERELVAAISKRGASTYYADSVKGRFTISRDNAKNTVYLQMNSLKPEDTAVYYCNVGASARKPYDYWGQGTQVTVSS | high polyreactivity
QVQLVESGGGLVQAGGSLRLSCAASGNIYRYYVMGWYRQAPGKEREFVAAITSSGGSTYYADSVKGRFTISRDNAKNTVYLQMNSLKPEDTAVFYCAKDYGDPGWAEYDYWGQGTQVTVSS | low polyreactivity
QVQLVESGGGLVQAGGSLRLSCAASGRTLVKYAMGWYRQAPGKERELVAAISSGGGTYYADSVKGRFTISRDNAKNTVYLQMNSLKPEDTAVYYCATPYYRRYAAPGYDYWGQGTQVTVSS | low polyreactivity
QVQIVESGGGLLQAGGSLRLSCAASGSTFERYAMGWYRQAPWKERELVAAIDSSGGTTYYADSVKGRFTISRDNAKNTDYLQMNSLKPEDTAVYYCAADPGYYSVAYDYWGQGTQVTVSA | low polyreactivity
QVQLVDSGGGLVQAGGSLRLSCAASGRTFGKNVMGWYREAPGKERELVAAISLSGGSTYYADSVKGRFTISRDNAKNTVYLQMNSLKPEDTAVYYCAAAAYGKPWGLDYWGQGTQVTVSS | low polyreactivity
QVQLVESGGGLVQAGGSLRLSCAASGGTFFTNAMGWYRHAPGKERELVAVITGSGGRTYYADSVKGRFTISRDNAMNTVYLQMNSLKPEDTAVYYCAARGYSWGQGTQVTLSS | high polyreactivity
QVQLVESGGGLVQAGGSLRLSCAASGYTFSFYAMGWYIQAPGKERELVATISWRGGSTYYADSVKGRFTISRDNAKNTVYLQMNSLKPEDTAVYYCNIVDKTGSKMDYWGQGTQVTVSS | high polyreactivity
QVQLVESGGGLVQAGGSLRLSCAASGRIFGVNAMGWYRQAPGKERELVADISSGGSTYYADSVKGRFTISRDNAKNTVNLQMNSLTPEYTAVYYCAVDKSVYVSYSFYFEYDYWGQGTQVTVSS | low polyreactivity
QVQLVESGGGLVQAGGSLRLSCAASGFIFPYYAMGWYRQAPGKERELVAAISSGGSTYYADSVKGRFTISRDNAKNSVYLQMNSLKPEDTAVYYCAVRITYWTGEFDYWGQGTQVTVSS | high polyreactivity
QVQLVESGGGLVQAGGSRRLSCAASGSILSKYTMGWYRQATGKERELVAVISSSGASTYYADSVKGRFTISRDNAKNTVYLQMNSLKPEDTAVYYCATYPWYSKYRYDHWGQGTQVTVSS | high polyreactivity
QVQLVESGGGLVQAGGSLRLSCAASGSTYNNAMGWYRQAPGKERELVAAIRWSGGSTYYADSVKGRFTISRDNAKNTVYLQMNSLKPEDTAVYYCAARYRWSRKRYNDYDYWGQGTQVTVSS | high polyreactivity
QVQLVESGGGLVQAGGSLRLSCAASGSTYYNTMGWYRQAPGKEREFVAAITWSTGTTYYADSVKGRFTISRDNAKNTVYLQMNSLKPEDTAVYYCATDDSRDWLNYWGQGTQVTVSS | low polyreactivity
QVQLVESGGGLVQAGGSLRLSCAASGRIIGKNVMGWSRQAPGKDRELVAAISNSGGSTYYADSVKGRFTISRDNAKNTVYLQMNSLKPEDTAVYYCAVDTSYYDYWGQGTQVTVSS | high polyreactivity
QVQLVESGGGLVQAGGSLRISCAASGLTFGRYAMGWYRQAPGKEMELVAAITGSGGRTYYADSVKGRFTISRDNAKNNVYLQINSLKQEDTAVYYCATEASPRGYAEYDYWGQGTQVTVSS | high polyreactivity
QVQLVESGGGLVQAGGSLRLSCAASGRIFYNYAMGWYRPAPGKDRVLVAAISVSGGSTYYADSEKGRFTISRDNAKNTVYLQMNSLKPEDTAVYYCAARRDRGYTREYWGQGTQVTVST | high polyreactivity
QVQLVESGGGLVQAGGSLRLSCAASGSIFSSYAMGWYRQAPGKERELVAAISQSGGDTYYADSVKGRFTISRDNAKNTVYLQMNSLKPEDTAVYYCNRDFSLVVHYNFDYWGQGTQVTVSS | low polyreactivity
QVQLGESGGGLVQAGGSLRLSCAASGSIFYFNAMGWYRQAPGKERELVAAISWSGRTYYADSVKGRFTISRDNAKNTVYLQMNSLKPEDTAVFYCAAKNTGRYYWGQGTQVTVSS | high polyreactivity
QVQLVESGGGLVQAGGSLRLSCAASGSTFAVNAMGWYRQAPGKERELVAAISGSGGRTYYADSVKGRFTISRDNAKNTVYLQMNSLKPEDTAVYYCATELRASYRSSGAYHYDYWGQGTQVTVSS | low polyreactivity
